In patent US20230241243A1, “CARRIER PARTICLE-DRUG CONJUGATES, SELF-IMMOLATIVE LINKERS, AND USES THEREOF” (priority 2020, published 2023):

assay: Drug-release assay of nanoparticle-conjugated linker-payloads under cleavage conditions (Cat-B, redox-responsive or pH-sensitive cleaving study), RP-HPLC; assay type: in vitro ADME; settings: linker-payload conjugated to DBCO-functionalized silica nanoparticle, 37° C., 24 hours
Description: To assess the drug releasing profile of exemplary linker-drug conjugates, the linker-drug conjugates were each conjugated to a DBCO-functionalized ultrasmall silica nanoparticle via a click chemistry reaction between the azide groups on the linker-drug conjugate precursors and the dibenzocyclooctyne (DBCO) groups of the nanoparticles. The resulting drug-nanoparticle-conjugates were then incubated under the desired releasing conditions for release kinetics tests.
The amount of released drugs vs non-released drugs was measured using reverse phase HPLC by analyzing the area under curve (AUC) (FIG. 10A and FIG. 10B).
General Method: A Waters Xbridge Peptide BEH C18 column with 4.6 mm×50 mm dimensions, a particle size of 5 μm, and a pore size of 300 A was used (part number 186003622). Acetonitrile (VWR HiPerSolv Chromanorm, UHPLC Grade) was used as received without further preparation, […] trifluoroacetic acid in deionized water was prepared by adding 1 mL of trifluoroacetic acid (HPLC grade, Millipore-Sigma) into 999 mL 18.2 MΩ·cm deionized water that was generated using an IQ7000 Millipore deionized water system and passed through a 0.2 μm filter before use. The seal wash used for the system was composed of 90% 18.2 MΩ·cm deionized water and 10% methanol (HPLC grade, VWR). The injection needle was washed using a mixture of 25 vol % 18.2 MΩ·cm deionized water, 25 vol % acetonitrile, 25 vol % methanol, and 25 vol % 2-propanol. Samples were prepared in a concentration range of 0.25 to 2 μM and the injection volume ranges from 60 μL to 10 μL, respectively. Higher sample concentration can be used if detector signal is low. Vials used for all injections are fresh Waters Total Recovery vials with screw caps that have pre-slit PTFE septa (part number 186000385C).
Method for Protease-cleavable and Redox-responsive Linkers: Before any sample injections were started, the PDA lamp was turned on and allowed to warm up for at least 30 minutes. The system and column were equilibrated with 95% 0.01% TFA in deionized water, 5% acetonitrile for at least 10 minutes at a flow rate of 1.0 mL/min after the PDA lamp had warmed up. Two blank injections, with injection volumes of 10 μL containing only 18.2 MΩ·cm deionized water, were performed before the injection of any samples for analysis. The gradient used to elute protease-cleavable and redox-sensitive linkers conjugated to hybrid silica nanoparticles, and their components began at 95% 0.01% TFA in deionized water and 5% acetonitrile and linearly changed to 15% 0.01% TFA in deionized water, 85% acetonitrile over 8 minutes. Acetonitrile composition was increased to 95% over an additional minute and held at 95% for an additional 2 minutes to ensure that any strongly retained compounds are eluted. The composition of the solvent was then changed back to the starting composition of the gradient over an additional minute and allowed to equilibrate for 3 minutes before another injection began. Between sample injections a blank injection was run to ensure that no carryover occurred.
Method for pH-sensitive Linkers: Before any sample injections were started, the PDA lamp was turned on and allowed to warm up for at least 30 minutes. A gradient of pure deionized water and acetonitrile was used, all other consumables including column and vials were the same as for the method to purify Cat-B sensitive and redox-responsive linkers elaborated on above. Briefly the gradient composition began at 95% deionized water and 5% acetonitrile at a flow rate of 1.0 mL/min (not changed throughout the method). The composition was changed from this starting composition to 15% deionized water and 85% acetonitrile over a 12-minute period, during which the retained drug-linkers, released drug, free drug linker, and any other impurities eluted. At the 12-minute mark the composition was rapidly changed to 5% deionized water and 95% acetonitrile over the course of one minute. […]

SMILES	% of Payload Release in 24 Hours Under Cleavage Conditions
CCc1c2c(nc3ccc(OCCCNC(=O)OCc4ccc(NC(=O)[C@H](CCCNC(N)=O)NC(=O)[C@@H](NC(=O)CCOCCOCCOCCOCCOCCOCCOCCOCCOCCOCCOCCN=[N+]=[N-])C(C)C)cc4)cc13)-c1cc3c(c(=O)n1C2)COC(=O)[C@]3(O)CC [Example 17, 4-((38S,41S)-1-azido-38-isopropyl-36,39-dioxo-41-(3-ureidopropyl)-3,6,9,12,15,18,21,24,27,30,33-undecaoxa-37,40-diazadotetracontan-42-amido)benzyl (3-(((S)-4,11-diethyl-4-hydroxy-3,14-dioxo-3,4,12,14-tetrahydro-1H-pyrano[3′,4′:6,7]indolizino[1,2-b]quinolin-9-yl)oxy)propyl)carbamate]	++ (‘++’ indicates 26-50% release)
CCc1c2c(nc3ccc(OC(C(=O)OC)c4ccc(NC(=O)[C@H](CCCNC(N)=O)NC(=O)[C@@H](NC(=O)CCOCCOCCOCCOCCOCCN=[N+]=[N-])C(C)C)cc4)cc13)-c1cc3c(c(=O)n1C2)COC(=O)[C@]3(O)CC (stereo partly drawn) [Example 12, methyl 2-(4-((20S,23S)-1-azido-20-isopropyl-18,21-dioxo-23-(3-ureidopropyl)-3,6,9,12,15-pentaoxa-19,22-diazatetracosan-24-amido)phenyl)-2-(((S)-4,11-diethyl-4-hydroxy-3,14-dioxo-3,4,12,14-tetrahydro-1H-pyrano[3′,4′:6,7]indolizino[1,2-b]quinolin-9-yl)oxy)acetate]	+ (‘+’ indicates 5-25% release)
CC[C@@]1(O)C(=O)OCc2c1cc1n(c2=O)Cc2c-1nc1cc(F)c(C)c3c1c2[C@@H](NC(=O)[C@@H](CCCNC(N)=O)NC(=O)[C@@H](NC(=O)CCOCCOCCOCCOCCOCCOCCOCCOCCOCCOCCOCCN=[N+]=[N-])C(C)C)CC3 [Example 50, 1-azido-N-((S)-1-(((R)-1-(((1S,9S)-9-ethyl-5-fluoro-9-hydroxy-4-methyl-10,13-dioxo-2,3,9,10,13,15-hexahydro-1H,12H-benzo[de]pyrano[3′,4′:6,7]indolizino[1,2-b]quinolin-1-yl)amino)-1-oxo-5-ureidopentan-2-yl)amino)-3-methyl-1-oxobutan-2-yl)-3,6,9,12,15,18,21,24,27,30,33-undecaoxahexatriacontan-36-amide]	+ (‘+’ indicates 5-25% release)
CCc1c2c(nc3ccc(OCc4ccc(NC(=O)[C@H](CCCNC(N)=O)NC(=O)[C@@H](NC(=O)CCOCCOCCOCCOCCOCCOCCOCCOCCOCCN=[N+]=[N-])C(C)C)cc4)cc13)-c1cc3c(c(=O)n1C2)COC(=O)[C@]3(O)CC [Example 48, 1-azido-N-((S)-1-(((S)-1-((4-((((S)-4,11-diethyl-4-hydroxy-3,14-dioxo-3,4,12,14-tetrahydro-1H-pyrano[3′,4′:6,7]indolizino[1,2-b]quinolin-9-yl)oxy)methyl)phenyl)amino)-1-oxo-5-ureidopentan-2-yl)amino)-3-methyl-1-oxobutan-2-yl)-3,6,9,12,15,18,21,24,27-nonaoxatriacontan-30-amide]	+ (‘+’ indicates 5-25% release)
CC[C@@]1(O)C(=O)OCc2c1cc1n(c2=O)Cc2c-1nc1cc(F)c(C)c3c1c2[C@@H](NC(=O)OCc1ccc(NC(=O)[C@H](CCCNC(N)=O)NC(=O)[C@@H](NC(=O)CCOCCOCCOCCOCCOCCOCCOCCOCCOCCOCCOCCN=[N+]=[N-])C(C)C)cc1)CC3 [Example 11, 4-((38S,41S)-1-azido-38-isopropyl-36,39-dioxo-41-(3-ureidopropyl)-3,6,9,12,15,18,21,24,27,30,33-undecaoxa-37,40-diazadotetracontan-42-amido)benzyl ((1S,9S)-9-ethyl-5-fluoro-9-hydroxy-4-methyl-10,13-dioxo-2,3,9,10,13,15-hexahydro-1H,12H-benzo[de]pyrano[3′,4′:6,7]indolizino[1,2-b]quinolin-1-yl)carbamate]	+++ (‘+++’ indicates 51-75% release)
CCc1c2c(nc3ccc(OCc4ccc(NC(=O)[C@H](CCCNC(N)=O)NC(=O)[C@@H](NC(=O)CCOCCOCCOCCOCCOCCN=[N+]=[N-])C(C)C)cc4)cc13)-c1cc3c(c(=O)n1C2)COC(=O)[C@]3(O)CC [Example 47, 1-azido-N-((S)-1-(((S)-1-((4-((((S)-4,11-diethyl-4-hydroxy-3,14-dioxo-3,4,12,14-tetrahydro-1H-pyrano[3′,4′:6,7]indolizino[1,2-b]quinolin-9-yl)oxy)methyl)phenyl)amino)-1-oxo-5-ureidopentan-2-yl)amino)-3-methyl-1-oxobutan-2-yl)-3,6,9,12,15-pentaoxaoctadecan-18-amide]	+ (‘+’ indicates 5-25% release)
CCc1c2c(nc3ccc(OCCCSSC(C)(C)CNC(=O)CCOCCOCCOCCOCCOCCOCCOCCOCCOCCN=[N+]=[N-])cc13)-c1cc3c(c(=O)n1C2)COC(=O)[C@]3(O)CC [Example 55, (S)-1-Azido-N-(2-((3-((4,11-diethyl-4-hydroxy-3,14-dioxo-3,4,12,14-tetrahydro-1H-pyrano[3′,4′:6,7]indolizino[1,2-b]quinolin-9-yl)oxy)propyl)disulfanyl)-2-methylpropyl)-3,6,9,12,15,18,21,24,27-nonaoxatriacontan-30-amide]	+ (‘+’ indicates 5-25% release)
CCc1c2c(nc3ccc(OCCCNC(=O)OCc4ccc(NC(=O)[C@H](CCCNC(N)=O)NC(=O)[C@@H](NC(=O)CCOCCOCCOCCOCCOCCOCCOCCOCCOCCN=[N+]=[N-])C(C)C)cc4)cc13)-c1cc3c(c(=O)n1C2)COC(=O)[C@]3(O)CC [Example 16, 4-((32S,35S)-1-azido-32-isopropyl-30,33-dioxo-35-(3-ureidopropyl)-3,6,9,12,15,18,21,24,27-nonaoxa-31,34-diazahexatriacontan-36-amido)benzyl (3-(((S)-4,11-diethyl-4-hydroxy-3,14-dioxo-3,4,12,14-tetrahydro-1H-pyrano[3′,4′:6,7]indolizino[1,2-b]quinolin-9-yl)oxy)propyl)carbamate]	+++ (‘+++’ indicates 51-75% release)
CCc1c2c(nc3ccc(OC(C(=O)N(C)C)c4ccc(NC(=O)[C@H](CCCNC(N)=O)NC(=O)[C@@H](NC(=O)CCOCCOCCOCCOCCOCCOCCOCCOCCOCCN=[N+]=[N-])C(C)C)cc4)cc13)-c1cc3c(c(=O)n1C2)COC(=O)[C@]3(O)CC (stereo partly drawn) [Example 19, 1-azido-N-((2S)-1-(((2S)-1-((4-(1-(((S)-4,11-diethyl-4-hydroxy-3,14-dioxo-3,4,12,14-tetrahydro-1H-pyrano[3′,4′:6,7]indolizino[1,2-b]quinolin-9-yl)oxy)-2-(dimethylamino)-2-oxoethyl)phenyl)amino)-1-oxo-5-ureidopentan-2-yl)amino)-3-methyl-1-oxobutan-2-yl)-3,6,9,12,15,18,21,24,27-nonaoxatriacontan-30-amide]	+ (‘+’ indicates 5-25% release)
CCc1c2c(nc3ccc(OC(C(=O)N(C)C)c4ccc(NC(=O)[C@H](CCCNC(N)=O)NC(=O)[C@@H](NC(=O)CCOCCOCCOCCOCCOCCOCCOCCOCCOCCOCCOCCN=[N+]=[N-])C(C)C)cc4)cc13)-c1cc3c(c(=O)n1C2)COC(=O)[C@]3(O)CC (stereo partly drawn) [Example 20, 1-azido-N-((2S)-1-(((2S)-1-((4-(1-(((s)-4,11-diethyl-4-hydroxy-3,14-dioxo-3,4,12,14-tetrahydro-1H-pyrano[3′,4′:6,7]indolizino[1,2-b]quinolin-9-yl)oxy)-2-(dimethylamino)-2-oxoethyl)phenyl)amino)-1-oxo-5-ureidopentan-2-yl)amino)-3-methyl-1-oxobutan-2-yl)-3,6,9,12,15,18,21,24,27,30,33-undecaoxahexatriacontan-36-amide]	+ (‘+’ indicates 5-25% release)
